Assay results reported in paper PMC5593996.

Columns and labels:
[1] = biological target: second RNA-recognition motif (RRM2) of TDP-43, wild type, residues 191-265 (human) (UniProt Q13148); assay: NMR HSQC peak intensities (fraction of globular monomer); reduced samples: first treated with 5 mM H2O2, then with 25 mM DTT
Q13148 [2] = assay: as above; conditions: other: NMR HSQC peak intensities (fraction of globular monomer)
[3] = biological target: second RNA-recognition motif (RRM2) of TDP-43, wild type, residues 191-265 (human) (UniProt Q13148); assay: cross-linking; disulfide-linked oligomers on non-reducing SDS-PAGE (14% tris-glycine, Coomassie, densitometry); 1 mM protein incubated 2 h with 5 mM H2O2
Q13148 [4] = assay: dynamic light scattering + other: pulsed-field-gradient NMR diffusion; fully oxidized sample (5 mM H2O2, about 31 h); size distribution of aggregate particles fitted to both diffusion coefficients (Eq. 6), NMR on peak N265'
[5] = biological target: second RNA-recognition motif (RRM2) of TDP-43, wild type, residues 191-265 (human) (UniProt Q13148); assay: NMR HSQC peak intensities (fraction of globular monomer); 1 mM RRM2 under oxidation with 5 mM H2O2 (2 h or 24 h); loss of monomer signals taken as conversion into oligomers and aggregate particles; standard phosphate buffer pH 6.7
Q13148 [6] = assay: as above; conditions: other: NMR HSQC peak intensities (fraction of globular monomer)

- percent monomer in the reduced samples [1]: 84%
- fraction of cross-linked protein molecules (gel densitometry, 2 h with 5 mM H2O2) [3]: 40%
- percent (mass fraction) left as globular monomer after 24 h with 5 mM H2O2 [5]: 4.5%
- percent left as globular monomer after 2 h with 5 mM H2O2 [5]: 40%
B1: second RNA-recognition motif (RRM2) of TDP-43, wild type, residues 191-265 (protein)
chain: MRKVFVGRCTEDMTEDELREFFSQYGDVMDVFIPKPFRAFAFVTFADDQIAQSLCGEDLIIKGISVHISNAEPKHN
- percent of protein mass still aggregated after 2 h oxidation and 3 h reduction (Q13148 [2]): ca. 19% of the protein by mass remains in the aggregate form
- percent of protein mass still aggregated after 24 h oxidation and 24 h reduction (Q13148 [2]): ca. 40% of the protein mass in this sample remains in the aggregated state
- mass fraction of the aggregate mass in all other aggregate particles (Q13148 [4]): all other APs combined account for 83% of the aggregate mass
- mass fraction of the aggregate mass that is disulfide-bonded dimers (Q13148 [4]): The mass fraction of the disulfide-bonded dimers is 17%
- percent of the protein in aggregate particles after 2 h with 5 mM H2O2 (Q13148 [6]): 60% (±4%) of the protein has been transformed into APs
